B1: T_apt.6 (ssDNA)
DNA: AGCAGCACAGAGGTCAGATGGTTGGGTAGGGTTGGATAGGGGCAAGTAGACCTATGCGTGCTACCGTGAA
B2: T_apt.2 (= T_beads_apt.5) (ssDNA)
DNA: AGCAGCACAGAGGTCAGATGGAGTCGGGTGGCTATTGGGTATGGACCGTGCCTATGCGTGCTACCGTGAA
B3: T_apt.5 (ssDNA)
DNA: AGCAGCACAGAGGTCAGATGGTGGATTTGGGTGGATTGGTATGAACTGACCCTATGCGTGCTACCGTGAA
B4: T_apt.3 (= T_beads_apt.1, T_beads_re_apt.7) (ssDNA)
DNA: AGCAGCACAGAGGTCAGATGGATGGTGTAGGTTGGGAGAGGCTCAGTGCCCCTATGCGTGCTACCGTGAA
B5: T_beads_re_apt.9 (ssDNA)
DNA: AGCAGCACAGAGGTCAGATGGGGGATGGTTAGGGTGGCTTAATATTGACCCCTATGCGTGCTACCGTGAA
B6: T_apt.4 (= T_beads_re_apt.8) (ssDNA)
DNA: AGCAGCACAGAGGTCAGATGTTGGTGGGGTGGCTTTGGGTATTTACTTGGCCTATGCGTGCTACCGTGAA

Key:
thrombin [1] = target: T1, thrombin (UniProt P00734;P00734 P00734:328-363,P00734:364-622); assay: SPR; HBS-EP, 150 mM NaCl, pH 7.0
thrombin [2] = target: T1, thrombin; assay: SPR; no specific response

Row | Binder | Kd (thrombin [1]) | binding result (thrombin [2])
1 | B1 | 55 nM | –
2 | B2 | – | no binding
3 | B3 | – | no binding
4 | B4 | 76 nM | –
5 | B5 | – | no binding
6 | B6 | 81 nM | –
